# Measurements from article PMC3601782.
# Molecular target: Sox2 (UniProt P48431)
# Test: co-IP Flag-Oct4 variants, endogenous Sox2
# Conditions: reference: Flag-Oct4 wild type; sites T235
substance,measurement,value
Oct4 (from UniProt Q01860) Flag-Oct4-T235A,binding against the reference,weaker
